# From patent US20260209362A1 (VIB VZW, published 2026)
# T1: biotinylated mouse recombinant IL-12Rβ2 (produced in-house) (mouse, UniProt P97378 24-637, random biotinylated)
# T1 construct: Soluble recombinant protein used for panning, ELISA and BLI; also called mIL-12RB2; mIL12RB2
# T1 sequence: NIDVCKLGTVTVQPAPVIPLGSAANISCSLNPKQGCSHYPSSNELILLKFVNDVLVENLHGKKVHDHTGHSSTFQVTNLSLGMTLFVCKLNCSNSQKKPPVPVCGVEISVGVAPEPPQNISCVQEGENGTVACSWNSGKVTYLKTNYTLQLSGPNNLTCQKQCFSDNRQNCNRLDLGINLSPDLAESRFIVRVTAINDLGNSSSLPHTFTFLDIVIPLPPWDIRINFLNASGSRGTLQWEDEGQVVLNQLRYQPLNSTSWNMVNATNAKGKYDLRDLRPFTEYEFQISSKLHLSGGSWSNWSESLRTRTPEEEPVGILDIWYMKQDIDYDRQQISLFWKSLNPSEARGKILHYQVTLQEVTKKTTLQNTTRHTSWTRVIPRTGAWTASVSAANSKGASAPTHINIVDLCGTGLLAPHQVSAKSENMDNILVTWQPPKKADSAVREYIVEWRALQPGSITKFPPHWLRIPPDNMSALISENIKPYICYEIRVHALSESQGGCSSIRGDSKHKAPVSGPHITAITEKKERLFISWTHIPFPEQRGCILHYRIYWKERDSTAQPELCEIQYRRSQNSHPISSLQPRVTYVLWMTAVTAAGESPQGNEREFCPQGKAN
# T2: biotinylated human recombinant IL-12Rβ2 (produced in-house) (human, UniProt Q99665 24-622, random biotinylated)
# T2 construct: Soluble recombinant protein used for panning, ELISA and BLI; also called hIL-12RB2; hIL12RB2
# T2 sequence: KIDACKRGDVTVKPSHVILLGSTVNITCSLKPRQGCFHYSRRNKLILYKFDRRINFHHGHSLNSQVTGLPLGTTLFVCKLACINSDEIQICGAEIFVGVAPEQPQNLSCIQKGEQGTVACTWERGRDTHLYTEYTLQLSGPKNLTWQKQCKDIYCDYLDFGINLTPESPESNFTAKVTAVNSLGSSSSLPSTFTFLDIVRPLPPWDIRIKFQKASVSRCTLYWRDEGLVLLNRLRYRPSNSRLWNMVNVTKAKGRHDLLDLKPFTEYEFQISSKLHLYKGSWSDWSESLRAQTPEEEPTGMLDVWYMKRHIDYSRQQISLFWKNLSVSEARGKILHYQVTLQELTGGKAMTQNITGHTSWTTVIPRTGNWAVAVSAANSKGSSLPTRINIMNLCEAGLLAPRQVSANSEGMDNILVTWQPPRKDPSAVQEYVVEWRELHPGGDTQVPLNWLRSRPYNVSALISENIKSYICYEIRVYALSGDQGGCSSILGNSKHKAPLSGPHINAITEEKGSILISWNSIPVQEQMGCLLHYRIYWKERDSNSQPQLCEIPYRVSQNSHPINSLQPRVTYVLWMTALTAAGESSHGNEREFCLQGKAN
# T3: human IL-12Rβ2 expressed on cells (human, UniProt Q99665 24-862)
# T3 construct: the cell lines are described by plasmid or cDNA number only; also called hIL-12RB2; HEK293T transiently transfected with human IL-12Rβ2
# T3 sequence: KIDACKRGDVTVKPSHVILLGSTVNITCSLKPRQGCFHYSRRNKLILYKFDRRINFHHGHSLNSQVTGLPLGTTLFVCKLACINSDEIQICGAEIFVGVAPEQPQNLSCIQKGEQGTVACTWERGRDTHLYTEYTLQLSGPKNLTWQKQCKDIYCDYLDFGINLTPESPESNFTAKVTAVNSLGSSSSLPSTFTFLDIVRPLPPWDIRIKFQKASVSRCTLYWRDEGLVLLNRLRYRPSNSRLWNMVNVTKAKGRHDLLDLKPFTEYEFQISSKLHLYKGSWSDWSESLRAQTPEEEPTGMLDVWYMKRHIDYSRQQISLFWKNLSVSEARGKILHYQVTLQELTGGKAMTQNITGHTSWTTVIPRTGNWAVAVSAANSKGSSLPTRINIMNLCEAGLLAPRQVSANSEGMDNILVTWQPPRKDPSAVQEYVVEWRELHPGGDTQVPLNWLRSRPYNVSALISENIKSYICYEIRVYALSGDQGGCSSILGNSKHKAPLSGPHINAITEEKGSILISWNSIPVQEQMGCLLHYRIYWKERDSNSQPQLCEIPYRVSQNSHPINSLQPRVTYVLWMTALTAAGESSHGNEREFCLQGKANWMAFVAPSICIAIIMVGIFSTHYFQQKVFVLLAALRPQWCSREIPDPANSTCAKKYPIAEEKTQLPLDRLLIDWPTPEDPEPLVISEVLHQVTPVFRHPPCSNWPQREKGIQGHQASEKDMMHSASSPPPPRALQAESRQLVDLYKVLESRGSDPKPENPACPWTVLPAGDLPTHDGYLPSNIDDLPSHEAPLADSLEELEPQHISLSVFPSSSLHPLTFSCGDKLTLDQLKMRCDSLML
# T4: human IL-12Rβ2 expressed on cells (human, UniProt Q99665 24-862)
# T4 construct: HEK293T cells transiently transfected with a human IL-12Rβ2 plasmid (Genscript OHu21785); also called hIL-12RB2
# T4 sequence: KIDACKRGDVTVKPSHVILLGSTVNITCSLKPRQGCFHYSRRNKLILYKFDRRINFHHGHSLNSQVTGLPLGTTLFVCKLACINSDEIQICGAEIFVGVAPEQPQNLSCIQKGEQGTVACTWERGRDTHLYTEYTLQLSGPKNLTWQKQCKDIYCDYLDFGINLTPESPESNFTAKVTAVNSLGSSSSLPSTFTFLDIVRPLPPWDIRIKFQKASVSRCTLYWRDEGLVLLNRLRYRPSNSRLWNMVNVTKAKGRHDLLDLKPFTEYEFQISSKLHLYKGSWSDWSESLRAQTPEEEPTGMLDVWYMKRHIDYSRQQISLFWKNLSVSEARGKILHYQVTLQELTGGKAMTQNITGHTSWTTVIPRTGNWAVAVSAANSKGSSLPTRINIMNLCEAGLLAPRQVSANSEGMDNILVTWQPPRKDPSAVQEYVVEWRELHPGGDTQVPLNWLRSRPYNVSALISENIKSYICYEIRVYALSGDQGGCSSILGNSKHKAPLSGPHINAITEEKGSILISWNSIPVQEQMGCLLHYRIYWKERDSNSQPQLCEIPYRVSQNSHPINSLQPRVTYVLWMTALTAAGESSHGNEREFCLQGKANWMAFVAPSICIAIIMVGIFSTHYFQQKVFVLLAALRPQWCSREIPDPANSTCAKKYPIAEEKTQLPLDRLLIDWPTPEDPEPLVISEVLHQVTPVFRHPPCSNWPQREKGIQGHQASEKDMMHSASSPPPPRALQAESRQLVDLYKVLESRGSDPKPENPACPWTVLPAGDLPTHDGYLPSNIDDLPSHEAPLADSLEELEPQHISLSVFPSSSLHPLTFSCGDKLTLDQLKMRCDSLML
# T5: biotinylated recombinant human IL-12Rβ2 (produced in-house) (human, UniProt Q99665 24-622, random biotinylated)
# T5 construct: also called hIL-12RB2; hIL12RB2
# T5 sequence: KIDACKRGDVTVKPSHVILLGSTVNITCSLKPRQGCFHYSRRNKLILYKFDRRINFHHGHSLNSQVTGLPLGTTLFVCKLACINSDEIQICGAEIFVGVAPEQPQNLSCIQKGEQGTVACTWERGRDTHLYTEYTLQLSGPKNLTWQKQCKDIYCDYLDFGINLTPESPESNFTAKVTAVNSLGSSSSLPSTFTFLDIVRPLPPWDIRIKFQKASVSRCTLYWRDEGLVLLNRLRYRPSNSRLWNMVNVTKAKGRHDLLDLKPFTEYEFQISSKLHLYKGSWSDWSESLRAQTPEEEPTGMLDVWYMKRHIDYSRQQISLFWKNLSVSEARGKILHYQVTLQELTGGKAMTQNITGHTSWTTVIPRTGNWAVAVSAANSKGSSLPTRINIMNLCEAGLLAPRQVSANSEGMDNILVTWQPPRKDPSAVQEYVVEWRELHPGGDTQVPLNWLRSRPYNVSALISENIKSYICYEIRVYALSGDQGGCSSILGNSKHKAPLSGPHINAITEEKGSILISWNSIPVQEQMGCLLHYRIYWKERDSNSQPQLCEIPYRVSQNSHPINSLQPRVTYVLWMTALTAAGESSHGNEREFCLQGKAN
# T6: biotinylated recombinant mouse IL-12Rβ2 (produced in-house) (mouse, UniProt P97378 24-637, random biotinylated)
# T6 construct: also called mIL-12RB2; mIL12RB2
# T6 sequence: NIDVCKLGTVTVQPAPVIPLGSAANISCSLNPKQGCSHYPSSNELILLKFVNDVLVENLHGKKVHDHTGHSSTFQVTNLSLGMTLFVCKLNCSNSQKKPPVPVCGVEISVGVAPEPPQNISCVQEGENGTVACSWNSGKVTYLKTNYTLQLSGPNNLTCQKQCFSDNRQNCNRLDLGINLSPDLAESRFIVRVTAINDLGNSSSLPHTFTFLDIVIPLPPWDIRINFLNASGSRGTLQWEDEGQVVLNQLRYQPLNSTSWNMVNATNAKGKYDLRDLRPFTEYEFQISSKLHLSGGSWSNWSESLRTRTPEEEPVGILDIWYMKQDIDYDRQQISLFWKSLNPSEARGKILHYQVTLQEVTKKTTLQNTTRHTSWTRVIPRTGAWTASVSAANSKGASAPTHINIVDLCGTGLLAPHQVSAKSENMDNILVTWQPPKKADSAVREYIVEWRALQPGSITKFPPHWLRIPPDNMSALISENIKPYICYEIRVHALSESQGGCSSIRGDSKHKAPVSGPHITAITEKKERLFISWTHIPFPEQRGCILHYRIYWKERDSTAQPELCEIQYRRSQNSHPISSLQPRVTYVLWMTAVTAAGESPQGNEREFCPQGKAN
# What was measured:
# [1] = target: T1, biotinylated mouse recombinant IL-12Rβ2 …; assay: ELISA, periplasmic extract on biotinylated mouse IL-12Rβ2
# [2] = target: T2, biotinylated human recombinant IL-12Rβ2 …; assay: BLI (Octet Red), periplasmic extract on biotinylated human IL-12Rβ2 on streptavidin tips, 1:1 model
# [3] = target: T2, biotinylated human recombinant IL-12Rβ2 …; assay: BLI (Octet Red), periplasmic extract on biotinylated human IL-12Rβ2 on streptavidin tips
# [4] = target: T1, biotinylated mouse recombinant IL-12Rβ2 …; assay: ELISA, periplasmic extract on biotinylated mouse IL-12Rβ2; signal over streptavidin control well
# [5] = target: T3, human IL-12Rβ2 expressed on cells; assay: flow cytometry, periplasmic extract VHH-HA on HEK293T cells transiently expressing human IL-12Rβ2
# [6] = target: T2, biotinylated human recombinant IL-12Rβ2 …; assay: ELISA, periplasmic extract on biotinylated human IL-12Rβ2; signal over streptavidin control well
# [7] = target: T4, human IL-12Rβ2 expressed on cells; assay: flow cytometry, P.E. VHH on HEK293T cells transiently expressing hIL-12RB2
# [8] = target: T5, biotinylated recombinant human IL-12Rβ2 …; assay: BLI (Octet), P.E. VHH on immobilised biotinylated hIL-12RB2
# [9] = target: T5, biotinylated recombinant human IL-12Rβ2 …; assay: BLI (Octet), P.E. VHH on immobilised biotinylated hIL-12RB2, 1:1 model
# [10] = target: T6, biotinylated recombinant mouse IL-12Rβ2 …; assay: ELISA, P.E. VHH on biotinylated mIL-12RB2
binder,measurement,setting,value
"anti-IL-12Rβ2 VHH clone 3CRHS106 (clone ID 20429) (VHH, Tested as periplasmic extract; not shown: C-terminal HA tag) VHH: QVQLQESGGGLVQPGGSLRLSCKASGFTFSTYAMSWVRQAPGKGLEWVSAVNSGGLSTDYADSVEGRFTISRDDAKNMLFLQMNSLKPEDTARYYCAKYEDCSDYMCHRDRAGYWGQGTQVTVSS",binding result,[1],no binding
same,koff,[2],0.00355 s⁻¹
same,Response,[3],0.297
same,mIL12RB2/control (ELISA),[4],1.03 ratio
same,% cells bound,[5],43.3%
same,dMFI,[5],1010
same,hIL12RB2/control (ELISA),[6],10.2 ratio
"anti-IL-12Rβ2 VHH clone 3CAHS102 (clone ID 20399) (VHH, Tested as periplasmic extract; not shown: C-terminal HA tag) VHH: QVQLQESGGGLVQPGGSLRLSCAASGSILRINLMGWYRQVPGKQRELVAEMSTGGSTTYVDSVEGRFTISRDNAKNTVYLQMNSLKPEDTAVYYCNAKAWQLGRLENDDWGQGTQVTVSS",binding result,[1],no binding
same,koff,[2],0.00267 s⁻¹
same,Response,[3],0.323
same,mIL12RB2/control (ELISA),[4],1.02 ratio
same,% cells bound,[5],44.7%
same,dMFI,[5],994
same,hIL12RB2/control (ELISA),[6],3.54 ratio
"anti-IL-12Rβ2 VHH clone 3CRHS51 (VHH, not shown: small tags and cut ends, tested as periplasmic extract; also called 3CRASS1) VHH: QVQLQESGGGLVQPGGSLRLSCAASGFTFSTYAMSWVRQAPGKGLEWVSAVNSGGLSTDYADSVEGRFTISRDDAKNMLFLQMNRLKPEDTARYYCAKYEDCSDYVCDRAGYWGQGTQVTVSS",dMFI,[7],1140
same,Response,[8],0.327
same,koff,[9],0.0043 s⁻¹
same,binding result,[10],no binding
"anti-IL-12Rβ2 VHH clone 3CRH5 (clone ID 20373) (VHH, Tested as periplasmic extract; also called 3CRHS; not shown: C-terminal HA tag) VHH: QVQLQESGGGLVQAGGSLVLSCAASGSAALIFLMSWYRQAPGKQRELVAEVSRGGSTTYADSVEGRFTISRDNAKNIVDLQMNSLKPEDTAVYYCKADQNYGDSLRSSWGQGTQVTVSS",binding result,[1],no binding
same,koff,[2],0.00337 s⁻¹
same,Response,[3],0.491
same,mIL12RB2/control (ELISA),[4],0.81 ratio
same,% cells bound,[5],39.5%
same,dMFI,[5],735
same,hIL12RB2/control (ELISA),[6],8.64 ratio
"anti-IL-12Rβ2 VHH clone 3CAHS41 (clone ID 20394) (VHH, Tested as periplasmic extract; not shown: C-terminal HA tag) VHH: QVQLQESGGGLVQAGDSLRLSCAASGRTFDTYIVGWFRQAPGKEREFVSALSWSDDTTIRDDSLRGRFTISRDNAKNTVYLLMNSLKPEDTAVYYCAAKAKPPAATWSSYRNREWYDYWGQGTQVTVSS",binding result,[1],no binding
same,koff,[2],0.00441 s⁻¹
same,Response,[3],0.509
same,mIL12RB2/control (ELISA),[4],1.35 ratio
same,% cells bound,[5],43.3%
same,dMFI,[5],971
same,hIL12RB2/control (ELISA),[6],8.77 ratio
